Measured values: patent US20230203142A1, “TREATMENT OF METABOLIC DISORDERS THROUGH THE TARGETING OF A NOVEL CIRCULATING HORMONE COMPLEX” (The President and Fellows of Harvard College, priority 2020, published 2023)

Experiments:
[1] = tested on: diet-induced obese (DIO) mice; experiment: a-Ab treatment of diet-induced obese mice; type: in vivo, mouse
Description: Given the essential role for appropriate beta cell function and insulin secretion in the pathogenesis of diabetes, the pancreata of FABP4 deficient (FABP4^−/−) mice were examined for beta cell mass and insulin content. Animal care and experimental procedures were performed with approval from animal care committees of Harvard University. All mice were housed on a 12-hour light/dark cycle with ad libitum access to chow (PicoLab 5058 LabDiet) and water. FABP4−/− and WT mice were littermates obtained from heterozygous breeding. High fat diet (HFD) fed mice were provided ad libitum access to HFD (60% kcal from fat; Research Diets Inc., D12492i) for 14 weeks beginning at 4 weeks of age. Pancreata and isolated islets were obtained from 7-8-week-old male mice. Blood was collected every other week for 6 hour fasting plasma insulin and FABP4 levels. For acute FABP4 treatment, 10 μg of human recombinant FABP4 (produced in-house) or sterile PBS was injected intraperitoneally. Blood was collected from the tail vein at 0, 10, 20, 30, 60, 120, 240- and 360-minutes post injection for measurement of blood glucose, plasma insulin, and FABP4 levels.
(§1) For the immunohistochemistry, pancreata were dissected and fixed in 10% zinc buffered formalin for 24-48 hrs before being washed and stored in 70% ethanol. Samples were paraffin embedded, and sectioned in steps 250 μm apart. Immunostaining for insulin and glucagon was performed as described previously (Prentice et al., 2014; Rezania et al., 2014). Images of each section were acquired using Aperio Imagescope at 20× magnification. The beta- or alpha-cell area was calculated by using positive pixel count analysis (Aperio ImageScope). Islet number and size was determined by manually circling insulin positive clusters in the Aperio ImageScope software. Two blinded individuals independently performed manual analysis and insulitis scoring.
Antibodies were stored at 4° c. at a stock concentration of 10 mg/ml in PBS. WT diet-induced obese (DIO) male mice were treated twice weekly with 33 mg/kg bodyweight of a-Ab or control antibody (c-Ab) in a final volume of 150 μl, injected subcutaneously for 3 weeks after 12 weeks of high fat breeding, as described (see US20160319003, incorporated herein by reference, and Burak et al., 2015). […] Glucose tolerance test were performed as previously described (Liu, Y. et al. Cell Rep 14, 2889-2900). Briefly, both chow and high fat diet fed mice were evaluated simultaneously. Before intraperitoneal glucose tolerance tests, mice were fasted 16 hr. overnight, before injection of 0.75 g/kg body weight of glucose. Blood glucose was evaluated at 0, 15, 30, 45, 60, 90, and 120-min post-injection.
as §1, with “Pancreata were” for “For the immunohistochemistry, pancreata were”, “for insulin, glucagon, BrdU” for “for insulin”, “and Cleaved Caspase 3” for “and glucagon”

primary human islets = experiment: Glucose-stimulated insulin secretion (GSIS), human islets; type: cell-based
Description: Primary islet isolation from mice was performed as previously described (Batchuluun et al., 2018; Prentice et al., 2014) and GSIS was assessed following acute treatment with NDPK-ADK in the presence or absence of FABP4. Insulin secretion assays were performed as previously described (Prentice et al., 2014). For primary islets, 20 islets were hand-picked into 1.5 ml tubes, washed twice with Krebs Ringer Buffer (KRB) without glucose, and pre-incubated in 500 μl low glucose (LG; 2.8 mM) KRB for 1 hour at 37° C. KRB was then removed and 250 μl of fresh LG KRB added. Islets were incubated for 20 minutes at 37° C. Supernatant was collected and 250 μl high glucose (HG; 16.7 mM) KRB added. Islets were incubated for 20 minutes at 37° C. In conditions where KCl was used, HG KRB was collected, and 250 μl KC1 (16.7 mM glucose, 30 mM KCl) KRB added. Islets were incubated for 20 minutes at 37° C., and supernatant collected. Following the stimulation protocol, cells were lysed in 100 μl acid ethanol (70% ethanol, 1% HCl in water) and stored at 4° C. overnight. Samples were evaporated using a SpeedVac until dried, and resuspended in 60 μl ultrapure water. DNA was quantified by Nanodrop (ThermoFisher, USA). Insulin from supernatant was quantified using insulin HTRF (Insulin Ultrasensitive Assay kit 62IN2PEH; Cisbio, USA). […]

B1: a-Ab: monoclonal antibody previously reported as CA33; heavy chain SEQ ID NO 446, light chain SEQ ID NO 447; binds FABP4 and NDPK (antibody, listed as Homo sapiens)
heavy: QSVEESGGRLVTPGTPLTLTCTVSGFSLSTYYMSWVRQAPGKGLEWIGIIYPSGSTYCASWAKGRFTISKASTTVDLKITSPTTEDTATYFCARPDNDGTSGYLSGFGLWGQGLVTVSSAKTTPPSVYPLAPGSAAQTNSMVTLGCLVKGYFPEPVTVTWNSGSLSSGVHTFPAVLQSDLYTLSSSVTVPSSTWPSETVTCNVAHPASSTKVDKKIVPRDC
light: DVVMTQTPASVSEPVGGTVTIKCGASEDISRYLVWYQQKPGQPPKRLIYKASTLASGVPSRFKGSGSGTDFTLTISDLECDDAATYYCQCTYGTYAGSFFYSFGGGTEVVVERTDAAPTVSIFPPSSEQLTSGGASVVCFLNNFYPKDINVKWKIDGSERQNGVLNSWTDQDSKDCTYSMSSTLTLTKDEYERHNSYTCEATHKTSTSPIVKSFNRNEC
[1]; DIO model, three weeks
  beta cell proliferation, Ki67 staining: small but significant increase
[1]; DIO model, vs controls
  CC3 positive beta cells: profound reduction
[1]; WT DIO mice, 33 mg/kg twice weekly s.c.
  glycemic excursion during glucose tolerance test (GTT): improved
[1]; WT DIO mice, 33 mg/kg twice weekly s.c., three weeks
  6 hr fasting glucose levels: reduced
[1]; pancreata of DIO mice, 3 weeks
  beta cell mass: trend towards increased
  number of islets: increased
[1]; pancreatic sections, DIO mice
  glucagon positive area: significant reduction
Primary human islets
  GSIS in response to the NDPK-ADK/FABP4 complex: rescued
